# Measured values published in paper PMC8563730, “CryoEM structure of the outer membrane secretin channel pIV from the f1 filamentous bacteriophage” (Nature Communications, 2021).
# Biological target: the molecule itself
# Assay: cryo-EM structure; purified f1pIV (~0.7 mg/ml) in 1% CHAPS, 25 mM Na HEPES pH 8.0, 500 mM NaCl, 0.5 mM EDTA, on graphene oxide-coated lacey carbon grids; 2D class averages and a 3D reconstruction with C15 symmetry, 2.7 Å
protein,measurement,value
"f1 pIV secretin (His-tagged f1pIV with the stabilizing S318I mutation) (natural protein, bacteriophage f1, UniProt P03666 22-426, looked up, pIV secretin (gene IV protein, virion export protein) of filamentous bacteriophage f1; mature protein of 405 residues (N0 1-88, linker 89-107, N3 108-172, linker 173-174, secretin domain 175-405); S318 is residue 339 of the precursor (318 + 21 signal residues); also called f1pIV secretin channel; copies: 15) QVIEMNNSSLRDFVTWYSKQTGESVIVSPDVKGTVTVYSSDVKPENLRDFFISVLRANNFDMVGSIPSIIQKYNPNNQDYIDELPSSDNQEYDDNSAPSGGFFVPQNDNVTQTFKINNVRAKDLIRVVELFVKSNTSKSSNVLSVDGSNLLVVSAPKDILDNLPQFLSTVDLPTDQILIEGLIFEVQQGDALDFSFAAGSQRGTVAGGVNTDRLTSVLSSAGGSFGIFNGDVLGLSVRALKTNSHSKILSVPRILTLSGQKGSISVGQNVPFITGRVTGESANVNNPFQTVERQNVGISMSVFPVAMAGGNIVLDITIKADSLSSSTQASDVITNQRSIATTVNLRDGQTLLLGGLTDYKNTSQDSGVPFLSKIPLIGLLFSSRSDSNEESTLYVLVKATIVRAL",stoichiometry N,15
